Patent publication US20230416363A1 (KADMON, published 2023)
Numbering of substitutions follows the chain as printed.

T1: mPD1 (soluble, ELISA of Examples 20 and 24) (mouse, UniProt Q02242 25-167, limits assumed)
T1 construct: also called Biotin-mPD1
T1 sequence (looked up): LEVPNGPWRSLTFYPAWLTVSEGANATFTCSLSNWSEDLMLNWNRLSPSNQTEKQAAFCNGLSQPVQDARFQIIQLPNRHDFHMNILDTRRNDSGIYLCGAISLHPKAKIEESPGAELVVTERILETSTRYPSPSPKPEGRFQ

T2: mPD-1-Fc (mouse; human, UniProt Q02242 25-167, limits assumed)
T2 construct: domain: IgV domain; not shown: human IgG1 Fc
T2 sequence (looked up): T1 sequence (looked up)

T3: mouse PD-1 expressed on cells (mouse, UniProt Q02242 25-288)
T3 sequence (looked up): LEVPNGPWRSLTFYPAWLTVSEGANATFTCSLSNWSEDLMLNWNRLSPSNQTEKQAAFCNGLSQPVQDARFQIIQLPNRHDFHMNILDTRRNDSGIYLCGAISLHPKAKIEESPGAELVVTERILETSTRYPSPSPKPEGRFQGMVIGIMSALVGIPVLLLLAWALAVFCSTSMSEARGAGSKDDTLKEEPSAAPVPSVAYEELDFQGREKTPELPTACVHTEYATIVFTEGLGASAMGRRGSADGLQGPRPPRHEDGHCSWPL

T4: mPD-1-his (mouse, UniProt Q02242 25-167, limits assumed)
T4 construct: domain: IgV domain
T4 sequence: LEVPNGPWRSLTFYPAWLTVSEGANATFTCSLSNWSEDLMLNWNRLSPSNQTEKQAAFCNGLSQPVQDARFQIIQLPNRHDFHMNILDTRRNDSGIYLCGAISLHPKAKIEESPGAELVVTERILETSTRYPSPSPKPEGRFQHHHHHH

B1: m3A7 (antibody, V domains shown)
VH: QVQLVQSGAEVKKPGASVKVSCKASGHTFTSYYIHWVRQAPGQGLEWMGIINPSGGSTSYAQKFQGRVTMTRDTSTSTVYMELSSLRSEDTAVYYCARDRAYGGAGDYWGQGTLVTVSS
VL: DIQMTQSPSSLSASVGDRVTITCRASRSISNWLAWYQQKPGKAPKLLIYAASSLQSGVPSRFSGSGSGTDFTLTISSLQPEDFATYYCQQSYSAPVTFGQGTKVEIK
notes: R3A9 derivative; also called 7115C
B2: m4D1 (antibody, V domains shown)
VH: B1 VH
VL: B1 VL with R27Q, N31A, A50K, Q55E, A94P, V96A, Q100G
notes: R3A9 derivative

How the values were obtained:
[1] = biological target: T5, hPD1 (soluble, ELISA of Example 20) (human, UniProt Q15116 25-167, limits assumed); assay: ELISA, hPD1
T5 sequence (Q15116 25-167 limits assumed): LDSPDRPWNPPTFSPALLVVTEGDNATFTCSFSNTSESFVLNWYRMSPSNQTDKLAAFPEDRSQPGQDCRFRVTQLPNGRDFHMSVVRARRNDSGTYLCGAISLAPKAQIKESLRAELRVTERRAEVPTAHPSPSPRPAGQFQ

[2] = biological target: T1, mPD1 (soluble, ELISA of Examples 20 and …); assay: ELISA, mPD1
mPD-1-Fc [3] = biological target: T2, mPD-1-Fc; assay: ELISA, mPD-1-Fc
[4] = biological target: T3, mouse PD-1 expressed on cells; assay: cell-based or functional assay
hPD-1-Fc [5] = biological target: T6, hPD-1-Fc (human, UniProt Q15116 25-167); assay: SPR Biacore, hPD1-Fc
T6 construct: domain: IgV domain; also called human PD-1-Fc; not shown: human IgG1 Fc
T6 sequence (Q15116 25-167 limits assumed): as above

mPD-1-Fc [6] = biological target: T2, mPD-1-Fc; assay: SPR Biacore, mPD1-Fc
mPD-1-his [7] = biological target: T4, mPD-1-his; assay: SPR Biacore, mPD1-his
[8] = biological target: T3, mouse PD-1 expressed on cells; assay: cell-based or functional assay; remark: listed apart in the source
[9] = biological target: T5, hPD1 (soluble, ELISA of Example 20); assay: blocking ELISA, hPD1 to hPDL1
[10] = biological target: T1, mPD1 (soluble, ELISA of Examples 20 and …); assay: blocking ELISA, mPD1 to mPDL1
mPD-1-Fc [11] = biological target: T2, mPD-1-Fc; assay: blocking ELISA, mPD-1 to PD-L1
[12] = biological target: T3, mouse PD-1 expressed on cells; assay: flow cytometry, mPD1-293 cells
[13] = biological target: T3, mouse PD-1 expressed on cells; assay: flow cytometry, mPD1-eff cells
mPD-1-Fc [14] = biological target: T2, mPD-1-Fc; assay: ELISA, mPD-1-Fc on streptavidin
[15] = biological target: T3, mouse PD-1 expressed on cells; assay: flow cytometry, mPD-1-293 cells
mPD-1-his [16] = biological target: T4, mPD-1-his; assay: ELISA, mPD-1-his on streptavidin
[17] = biological target: T1, mPD1 (soluble, ELISA of Examples 20 and …); assay: ELISA, biotin-mPD1 on streptavidin
hPD-1-Fc [18] = biological target: T6, hPD-1-Fc; assay: SPR Biacore, hPD1-Fc (second m3A7 row)
mPD-1-Fc [19] = biological target: T2, mPD-1-Fc; assay: SPR Biacore, mPD1-Fc (second m3A7 row)
mPD-1-his [20] = biological target: T4, mPD-1-his; assay: SPR Biacore, mPD1-his (second m3A7 row)
[21] = biological target: T7, human PD-1 expressed on cells (human, UniProt Q15116 25-288); assay: cell-based or functional assay
T7 sequence (Q15116 25-288): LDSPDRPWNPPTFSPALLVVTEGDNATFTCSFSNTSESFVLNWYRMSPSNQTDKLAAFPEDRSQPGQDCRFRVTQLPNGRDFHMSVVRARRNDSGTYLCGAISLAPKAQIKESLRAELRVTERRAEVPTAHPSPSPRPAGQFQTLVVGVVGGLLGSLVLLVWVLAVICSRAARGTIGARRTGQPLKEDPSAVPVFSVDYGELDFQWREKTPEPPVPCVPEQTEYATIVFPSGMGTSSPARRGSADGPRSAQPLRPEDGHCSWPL

[22] = biological target: T7, human PD-1 expressed on cells; assay: flow cytometry, hPD1-293 cells
[23] = biological target: T7, human PD-1 expressed on cells; assay: flow cytometry, hPD1-Jurkat cells

Binder | EC50 [1] | EC50 [2] | IC50, Promega blockade bioassay [4] | Kd (hPD-1-Fc [5]) | koff (hPD-1-Fc [5]) | kon (hPD-1-Fc [5]) | Kd (mPD-1-Fc [6]) | koff (mPD-1-Fc [6]) | kon (mPD-1-Fc [6]) | Kd (mPD-1-his [7]) | koff (mPD-1-his [7]) | kon (mPD-1-his [7]) | IC50 [9] | IC50 [10] | EC50 [12] | EC50 [13] | EC50 [17] | further results
B1 | 0.63 nM | 0.349 nM | 0.561 nM | 103 nM | 0.0176 s⁻¹ | 171000 M⁻¹ s⁻¹ | 2.53 nM | 0.000659 s⁻¹ | 261000 M⁻¹ s⁻¹ | 3.03 nM | 0.000823 s⁻¹ | 272000 M⁻¹ s⁻¹ | 37.8 nM | 0.537 nM | 0.609 nM | 0.27 nM | 0.268 nM | EC50 (mPD-1-Fc [3]): 0.834 nM; IC 50, Promega assay [8]: 0.0709 µg/mL; IC50 (mPD-1-Fc [11]): 0.102 nM; EC50 (mPD-1-Fc [14]): 0.187 nM; EC50 [15]: 0.228 nM; EC50 (mPD-1-his [16]): 0.251 nM; Kd (hPD-1-Fc [18]): 19.9 nM; koff (hPD-1-Fc [18]): 0.00263 s⁻¹; kon (hPD-1-Fc [18]): 132000 M⁻¹ s⁻¹; Kd (mPD-1-Fc [19]): 1.86 nM; koff (mPD-1-Fc [19]): 0.000406 s⁻¹; kon (mPD-1-Fc [19]): 219000 M⁻¹ s⁻¹; Kd (mPD-1-his [20]): 1.98 nM; koff (mPD-1-his [20]): 0.000479 s⁻¹; kon (mPD-1-his [20]): 241000 M⁻¹ s⁻¹
B2 | 0.221 nM | 2.03 nM | 0.572 nM | 1.09 nM | 6.36e-05 s⁻¹ | 58300 M⁻¹ s⁻¹ | 2.69 nM | 0.000179 s⁻¹ | 66300 M⁻¹ s⁻¹ | 2.87 nM | 0.000201 s⁻¹ | 70000 M⁻¹ s⁻¹ | 6.02 nM | 0.882 nM | 1.14 nM | 0.441 nM | 1.15 nM | IC50, Promega blockade bioassay [21]: 2.12 nM; EC50 [22]: 1.48 nM; EC50 [23]: 0.738 nM
